# Data taken from US20230416396A1 (Regeneron, published 2023).
# Read-outs that look alike come from different tables or passages of the source.
# B1: REGN7150 (bispecific antibody, human IgG4 S228P, kappa)
# heavy 1: QVQLVQSGAEVKKPGSSVKVSCKASGGPFRSSSFSWVRQAPGQGLEWMGGIIPILGKTNYAQKFQGRITIVTDESTTTVYMELSSLRSEDTAVFYCVRGSSLFDYWGQGTLVTVSSASTKGPSVFPLAPCSRSTSESTAALGCLVKDYFPEPVTVSWNSGALTSGVHTFPAVLQSSGLYSLSSVVTVPSSSLGTKTYTCNVDHKPSNTKVDKRVESKYGPPCPPCPAPPVAGPSVFLFPPKPKDTLMISRTPEVTCVVVDVSQEDPEVQFNWYVDGVEVHNAKTKPREEQFNSTYRVVSVLTVLHQDWLNGKEYKCKVSNKGLPSSIEKTISKAKGQPREPQVYTLPPSQEEMTKNQVSLTCLVKGFYPSDIAVEWESNGQPENNYKTTPPVLDSDGSFFLYSRLTVDKSRWQEGNVFSCSVMHEALHNHYTQKSLSLSLGK
# heavy 2: QVQLVQSGAEVKKPGASVKVSCKASAYTFTSYGFSWVRQAPGQGLEWMGWISTSNGYTNYAQKIQDRVTMTTDTSTSTAYMELRSLRSDDTAVYYCASLSNWVSFFDYWGQGTLVTVSSASTKGPSVFPLAPCSRSTSESTAALGCLVKDYFPEPVTVSWNSGALTSGVHTFPAVLQSSGLYSLSSVVTVPSSSLGTKTYTCNVDHKPSNTKVDKRVESKYGPPCPPCPAPPVAGPSVFLFPPKPKDTLMISRTPEVTCVVVDVSQEDPEVQFNWYVDGVEVHNAKTKPREEQFNSTYRVVSVLTVLHQDWLNGKEYKCKVSNKGLPSSIEKTISKAKGQPREPQVYTLPPSQEEMTKNQVSLTCLVKGFYPSDIAVEWESNGQPENNYKTTPPVLDSDGSFFLYSRLTVDKSRWQEGNVFSCSVMHEALHNRFTQKSLSLSPGK
# light: not shown
# notes: 1+1 format control, hIgG4P-PVA, common 3-20 light chain; also called CD38x4-1BB (1 + 1); 26871P2 x 25921P
# B2: REGN7633 (bispecific antibody, human IgG4 S228P, kappa)
# heavy 1: QVQLVQSGPEVKNPGAAVKVSCKASGYTFTRFGISWVRQAPGQGLEWMGWISVDNGNANYAQRFQGRVTMTTDTSTSTAYMELRSLRSDDTAVYYCAREWSIAAPGYLDYWGQGTLVTVSSASTKGPSVFPLAPCSRSTSESTAALGCLVKDYFPEPVTVSWNSGALTSGVHTFPAVLQSSGLYSLSSVVTVPSSSLGTKTYTCNVDHKPSNTKVDKRVESKYGPPGGGGSGGGGSGGGGSEVQLVESGGGLVQPGRSLRLSCAASGYTFDDYAMHWVRQAPGKGLEWVSGISWISDVIGYADSVKGRFTISRDNAKNSLYLQMNSLRAEDTALYYCAKDNGGIIVATHYYSYGMDVWGQGTTVTVSSASTKGPSVFPLAPCSRSTSESTAALGCLVKDYFPEPVTVSWNSGALTSGVHTFPAVLQSSGLYSLSSVVTVPSSSLGTKTYTCNVDHKPSNTKVDKRVESKYGPPCPPCPAPPVAGPSVFLFPPKPKDTLMISRTPEVTCVVVDVSQEDPEVQFNWYVDGVEVHNAKTKPREEQFNSTYRVVSVLTVLHQDWLNGKEYKCKVSNKGLPSSIEKTISKAKGQPREPQVYTLPPSQEEMTKNQVSLTCLVKGFYPSDIAVEWESNGQPENNYKTTPPVLDSDGSFFLYSRLTVDKSRWQEGNVFSCSVMHEALHNRFTQKSLSLSPGK
# heavy 2: EVQLVESGGGLVQPGRSLRLSCAASGFTFDDYAMHWVRQAPGKGLEWVSGISWKSDNIGYADSVKGRFTISRDNAKNSLYLQMNSLRAEDTALYYCAKALGGWKFDYYYGMDVWGQGTTVTVSSASTKGPSVFPLAPCSRSTSESTAALGCLVKDYFPEPVTVSWNSGALTSGVHTFPAVLQSSGLYSLSSVVTVPSSSLGTKTYTCNVDHKPSNTKVDKRVESKYGPPCPPCPAPPVAGPSVFLFPPKPKDTLMISRTPEVTCVVVDVSQEDPEVQFNWYVDGVEVHNAKTKPREEQFNSTYRVVSVLTVLHQDWLNGKEYKCKVSNKGLPSSIEKTISKAKGQPREPQVYTLPPSQEEMTKNQVSLTCLVKGFYPSDIAVEWESNGQPENNYKTTPPVLDSDGSFFLYSRLTVDKSRWQEGNVFSCSVMHEALHNHYTQKSLSLSLGK
# light: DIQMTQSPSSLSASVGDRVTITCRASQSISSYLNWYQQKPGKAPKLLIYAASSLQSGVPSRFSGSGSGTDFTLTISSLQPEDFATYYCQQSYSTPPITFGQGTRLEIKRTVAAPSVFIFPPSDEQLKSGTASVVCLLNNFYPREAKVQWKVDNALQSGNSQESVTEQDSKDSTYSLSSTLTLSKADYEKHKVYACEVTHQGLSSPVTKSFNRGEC
# notes: 1+2 format, hIgG4P-PVA; also called CD38x4-1BB (1 + 2); 26812P2 x 25889P2 (IN) + 35388P2 (OUT)
# Legend:
# human 4-1BB on cells [1] = target: T1, human 4-1BB on cells (human, UniProt Q07011 24-255); assay: cell-based or functional assay
# [2] = target: T2, human CD38 endogenously expressed on MOLP8 cells (human, UniProt P28907 1-300); assay: flow cytometry on MOLP8 cells (endogenous hCD38), APC anti-human secondary
# T2 construct: whole, on cells; also called hCD38
# Description: (§1) The ability of the multispecific antigen binding molecules to bind cells was assessed using flow cytometry. Cell lines were chosen to determine the ability of both the anti-CD38 and anti-4-1BB arms to bind their targets. […] Binding was detected by using a labeled secondary antibody and measuring fluorescence on a flow cytometer.
# HEK293 cells were lifted with trypsin, washed and resuspend in stain buffer (2% FBS in PBS). MOLP8 cells were washed and resuspended in stain buffer. Cells were added to wells of a 96 well V-bottom plate (3×10⁵ cells/well). A 1:4, 9-point, dose titration of test antibodies was diluted in stain buffer and added to cells to a final concentration ranging from 610 fM to 10 nM (a “no antibody” control was included as the ninth point (153fM), labeled as “secondary only”). Cells and antibodies were incubated for 30 min on ice and then washed in stain buffer. Cells were resuspended in 2 ug/ml allophycocyanin (APC) conjugated goat-anti human secondary antibody and incubated for 30 min on ice. Cells were then washed and resuspended in viability dye (according to the manufacturer's protocol) and incubated for 30 min on ice. Cells were then washed with stain buffer and resuspended in 2% PFA for 30 min on ice. After washing, cells were filtered and analyzed by flow cytometry to determine the geometric mean fluorescence intensity (gMFI), which was subsequently plotted using GraphPad Prism software. EC₅₀ values of the antibodies were determined from a 4-parameter logistic equation over a 9-point dose response curve (including secondary only control, representing the ninth point).
# human 4-1BB on cells [3] = target: T1, human 4-1BB on cells; assay: flow cytometry on HEK293/h4-1BB cells, APC anti-human secondary
# Description: as §1
# HEK293 and HEK293/4-1BB cells were lifted with trypsin, washed and resuspended in stain buffer (2% FBS in PBS) and added to wells of a 96 well V-bottom plate (3×10⁵ cells/well). A 1:5, 9-point, dose titration of test antibodies was diluted in stain buffer and added to cells to a final concentration ranging from 1.3 pM to 100 nM (a “no antibody” control was included as the ninth point ([…]) labeled as “secondary only”). Cells and antibodies were incubated for 30 min on ice and then washed in stain buffer. Cells were resuspended in 2 ug/ml allophycocyanin (APC) conjugated goat-anti human secondary antibody and incubated for 30 min on ice. Cells were then washed and resuspended in viability dye (according to the manufacturer's protocol) and incubated for 30 min on ice. Cells were then washed with stain buffer and resuspended in 2% PFA for 30 min on ice. After washing, cells were filtered and analyzed by flow cytometry to determine the geometric mean fluorescence intensity (gMFI), which was subsequently plotted using GraphPad Prism software. EC₅₀ values of the antibodies were determined from a 4-parameter logistic equation over a 9-point dose response curve (including secondary only control).
# human 4-1BB on cells [4] = target: T1, human 4-1BB on cells; assay: cell-based or functional assay; remark: listed apart in the source
# human 4-1BB on cells [5] = target: T1, human 4-1BB on cells; assay: cell-based or functional assay; remark: listed apart in the source
# T1 sequence (Q07011 24-255): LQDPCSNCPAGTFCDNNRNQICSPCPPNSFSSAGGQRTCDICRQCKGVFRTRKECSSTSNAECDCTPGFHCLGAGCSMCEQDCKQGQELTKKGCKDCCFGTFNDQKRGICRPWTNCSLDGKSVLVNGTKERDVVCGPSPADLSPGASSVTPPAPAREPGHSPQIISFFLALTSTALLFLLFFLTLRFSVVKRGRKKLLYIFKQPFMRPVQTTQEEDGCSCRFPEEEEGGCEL
binder,measurement,setting,value
B1,"EC50 of IFNγ release, T cells + HEK293/CD20/CD38 + REGN2281",human 4-1BB on cells [1],0.78 nM
same,"EC50 of IFNγ release, T cells + MOLP-8 + REGN5458",human 4-1BB on cells [1],43.8 nM
same,"MAX IFNγ release, T cells + HEK293/CD20 + REGN2281",human 4-1BB on cells [1],1840 pg/mL
same,"MAX IFNγ release, T cells + HEK293/CD20/CD38 + REGN2281",human 4-1BB on cells [1],3950 pg/mL
same,"MAX IFNγ release, T cells + MOLP-8 + IsoC",human 4-1BB on cells [1],56 pg/mL
same,"MAX IFNγ release, T cells + MOLP-8 + REGN5458",human 4-1BB on cells [1],1300 pg/mL
same,"MAX IFNγ release, T cells + NALM-6",human 4-1BB on cells [1],620 pg/mL
same,MAX gMFI,[2],210000 gMFI
same,EC50,human 4-1BB on cells [3],2.86 nM
same,MAX gMFI,human 4-1BB on cells [3],2.4e+06 gMFI
same,"EC50 of IL-2 release, T cells + NALM-6",human 4-1BB on cells [4],0.108 nM
same,"MAX IL-2 release, T cells + HEK293/CD20 + REGN2281",human 4-1BB on cells [4],63 pg/mL
same,"MAX IL-2 release, T cells + HEK293/CD20/CD38 + REGN2281",human 4-1BB on cells [4],593 pg/mL
same,"MAX IL-2 release, T cells + MOLP-8 + IsoC",human 4-1BB on cells [4],48 pg/mL
same,"MAX IL-2 release, T cells + MOLP-8 + REGN5458",human 4-1BB on cells [4],32 pg/mL
same,"MAX IL-2 release, T cells + NALM-6",human 4-1BB on cells [4],122 pg/mL
same,"EC50 of IL-2 release, T cells + HEK293/CD20/CD38 + REGN1979",human 4-1BB on cells [5],~0.1 nM
same,"EC50 of IL-2 release, T cells + MOLP-8 + REGN5458",human 4-1BB on cells [5],63.4 nM
same,"MAX IL-2 release, T cells + HEK293/CD20 + REGN1979",human 4-1BB on cells [5],182 pg/mL
same,"MAX IL-2 release, T cells + HEK293/CD20/CD38 + IsoC",human 4-1BB on cells [5],12 pg/mL
same,"MAX IL-2 release, T cells + HEK293/CD20/CD38 + REGN1979",human 4-1BB on cells [5],1300 pg/mL
same,"MAX IL-2 release, T cells + MOLP-8 + IsoC",human 4-1BB on cells [5],163 pg/mL
same,"MAX IL-2 release, T cells + MOLP-8 + REGN5458",human 4-1BB on cells [5],308 pg/mL
B2,MAX gMFI,[2],88000 gMFI
